Results on one molecule are retold here after article PMC8786823, “Flanking sequences influence the activity of TET1 and TET2 methylcytosine dioxygenases and affect genomic 5hmC patterns”.

The series deals with T1, UHRF2 SRA domain (human, UniProt Q96PU4 419-648).
T1 sequence: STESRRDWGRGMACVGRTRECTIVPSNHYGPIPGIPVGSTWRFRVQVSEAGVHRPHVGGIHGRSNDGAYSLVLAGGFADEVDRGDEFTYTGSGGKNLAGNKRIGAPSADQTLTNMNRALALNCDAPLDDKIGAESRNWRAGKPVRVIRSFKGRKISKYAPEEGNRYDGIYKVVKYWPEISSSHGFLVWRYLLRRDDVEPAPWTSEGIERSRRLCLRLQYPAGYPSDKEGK
Briefly: EMSA; 0.5 uM DNA; preferred over mC and unmodified DNA in the same context; 20 mM HEPES pH 7.9, 100 mM NaCl, 2 mM MgCl2, 2 mM DTT, 0.1% NP-40, 5% glycerol; 30 min on ice; 6% PAGE in 0.25X TBE, GelRed stain. Conditions: protein: recombinant; tags: His; blunt. Background: A gel shift assay detects complexes by their altered migration in electrophoresis.

B1: TET-disf-hmC/TET-disf-rev (dsDNA)
DNA 1: GAAGCTGGGACGCGCGCCGGGAGAGTGCAA
DNA 2: TTGCACTCTCCCGGCGCGCGTCCCAGCTTC
modifications: 5hmC at position 15 of strand 1 (hemihydroxymethylated CpG)
On to B1, for which the binding result is given as “binds”.
